# Results published in paper PMC4673829, “Chemical basis for the recognition of trimethyllysine by epigenetic reader proteins” (Nature Communications, 2015).
# Ends that are not written are not given here. Me3 = trimethyllysine (Kme3)
# T1: JMJD2A tudor domains
# T1 sequence (O75164 whole entry, species assumed, looked up): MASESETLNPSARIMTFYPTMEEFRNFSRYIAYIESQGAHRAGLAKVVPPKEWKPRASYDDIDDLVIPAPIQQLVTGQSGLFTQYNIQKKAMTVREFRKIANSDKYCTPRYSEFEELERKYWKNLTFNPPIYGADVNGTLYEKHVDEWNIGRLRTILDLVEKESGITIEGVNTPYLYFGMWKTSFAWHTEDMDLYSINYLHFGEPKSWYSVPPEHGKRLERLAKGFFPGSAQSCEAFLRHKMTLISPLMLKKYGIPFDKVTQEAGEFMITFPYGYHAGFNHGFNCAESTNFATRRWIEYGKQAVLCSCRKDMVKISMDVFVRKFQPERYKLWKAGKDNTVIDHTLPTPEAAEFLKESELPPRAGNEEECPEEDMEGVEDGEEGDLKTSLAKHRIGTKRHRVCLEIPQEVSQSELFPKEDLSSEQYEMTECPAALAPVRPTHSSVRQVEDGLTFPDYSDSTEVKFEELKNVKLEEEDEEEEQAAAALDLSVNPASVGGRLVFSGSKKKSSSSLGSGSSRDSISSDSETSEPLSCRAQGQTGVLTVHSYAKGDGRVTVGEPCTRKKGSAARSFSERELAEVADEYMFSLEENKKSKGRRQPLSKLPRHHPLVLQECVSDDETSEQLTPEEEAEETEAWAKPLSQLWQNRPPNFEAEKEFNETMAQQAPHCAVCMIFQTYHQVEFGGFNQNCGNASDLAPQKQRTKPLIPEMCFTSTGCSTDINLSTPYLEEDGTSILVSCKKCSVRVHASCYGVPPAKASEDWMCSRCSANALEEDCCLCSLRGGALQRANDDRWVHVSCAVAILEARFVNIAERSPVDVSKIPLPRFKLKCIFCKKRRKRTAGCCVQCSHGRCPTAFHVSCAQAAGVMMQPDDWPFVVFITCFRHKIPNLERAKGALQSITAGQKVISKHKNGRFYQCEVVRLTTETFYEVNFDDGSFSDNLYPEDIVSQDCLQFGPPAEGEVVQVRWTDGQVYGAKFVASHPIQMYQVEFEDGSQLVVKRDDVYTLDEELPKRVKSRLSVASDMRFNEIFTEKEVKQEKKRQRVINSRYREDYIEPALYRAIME
# Columns and labels:
# [1] = biological target: JARID1A PHD3 domain (for ITC); experiment: ITC; 350–600 μM H3K4me3 or H3C4me3 peptide titrated to 25–40 μM protein (JMJD2A–H3C4me3: 3 mM peptide to 200 μM JMJD2A); 19 injections; Microcal Auto-iTC200; one set of sites model; 5–7 repeats
# JMJD2A tudor domains = biological target: T1, JMJD2A tudor domains; experiment: as above
# [2] = biological target: SGF29 tandem tudor domain (for ITC); experiment: as above
# Sequence of SGF29 tandem tudor domain (for ITC) (Q96ES7 whole entry, the tested form may be a part): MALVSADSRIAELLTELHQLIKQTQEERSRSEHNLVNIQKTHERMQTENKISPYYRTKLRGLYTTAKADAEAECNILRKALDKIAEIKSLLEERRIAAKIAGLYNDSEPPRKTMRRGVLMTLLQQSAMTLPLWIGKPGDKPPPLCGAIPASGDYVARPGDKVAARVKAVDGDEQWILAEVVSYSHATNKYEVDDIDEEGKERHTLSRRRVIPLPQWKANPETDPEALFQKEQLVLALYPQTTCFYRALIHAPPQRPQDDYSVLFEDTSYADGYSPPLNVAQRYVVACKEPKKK
# [3] = biological target: JARID1A PHD3 domain (for ITC); experiment: ITC; H3G4 (5 mM) titrated to JARID1A (330 μM), H3G4 (3 mM) titrated to TAF3 (200 μM); 19 injections; Microcal Auto-iTC200; one set of sites model
binder,measurement,setting,value
ARTK(Me3)QTARKS-OH [10-mer H3K4me3 histone peptide],Kd,[1],94 nM
same,dH,[1],-11 kcal/mol
same,Kd,JMJD2A tudor domains,940 nM
same,dH,JMJD2A tudor domains,-13.1 kcal/mol
same,Kd,[2],1700 nM
same,dH,[2],-7.7 kcal/mol
ARTGQTARKS-OH [10-mer H3G4 histone peptide],Kd,[3],88000 nM
same,dH,[3],-2.1 kcal/mol
